The text below walks through data of US7807397B2, “Diagnostic method for disorders using copeptin” (B.R.A.H.M.S Aktiengesellschaft, priority 2004, dated 2010).

Where two headings read alike, the source gives them in different places. Where no end group is shown, it is not given here.

For series [1] the following is noted: reference [14]; cited from earlier work.
For another series, the system named is blood platelets. Particulars: reference [21]; cited from earlier work.
The format of series [2] is in vitro ADME, human. On the procedure:
The following assay buffer was used: 100 mM sodium phosphate, 150 mM NaCl, 5% bovine serum albumin, 0.1% unspecified sheep IgG, 0.1% sodium azide, pH 7.4.
As a standard material chemically synthesized peptide (peptide PAY 33) was used which corresponds to positions 132-164 of vasopressin-neurophysin 2-copeptin precursor. The standard was diluted in normal horse serum (Sigma). […]
In the test tubes 100 μl of standards or sample as well as 100 μl of assay buffer was pipetted. The tubes were incubated for two hours at 22° C. using gentle rotation. After washing 4 times with 1 ml of washing buffer (0.1% Tween 20), the supernatant was discarded. Then 200 μl of assay buffer, containing 1 million RLU (relative light units) of MA70-tagged antibody was added and incubated for a further two hours under gentle rotation at 22° C. After washing 4 times with 1 ml of washing buffer (0.1% Tween 20), the chemiluminescence bound to the tube was determined in a luminometer (Berthold, LB952T, basic reagents Brahms AG).
Using the software MULTICALC® (Spline Fit), the concentrations of the samples were determined.
The term copeptin immunoreactivity describes the amount of substrate detected by the developed sandwich immunoassay. The sandwich immunoassay uses antibodies raised against positions 132-147 and 149-164 of the vasopressin-neurophysin 2-copeptin-precursor for detection of the substrate. A typical standard curve for the developed assay is described in FIG. 1. Using the assay concentrations above 50 pg/ml copeptin immunoreactivity in plasma or serum can be determined quantitatively.

Turning to `NC(=O)CC[C@@H]1NC(=O)[C@H](Cc2ccccc2)NC(=O)[C@H](Cc2ccc(O)cc2)NC(=O)[C@@H](N)CSSC[C@@H](C(=O)N2CCC[C@H]2C(=O)N[C@@H](CCCN=C(N)N)C(=O)NCC(N)=O)NC(=O)[C@H](CC(N)=O)NC1=O` [vasopressin], in series [1], the half-life in vivo was 24 min. Further, in the series on blood platelets, the “fraction bound to blood platelets” value is “More than 90%”.

Turning to “copeptin: C-terminal glycoprotein of the VP prohormone, 39 amino acids plus sugar moiety; measured as endogenous copeptin immunoreactivity (ASDRSNATQLDGPAGALLLRLVQLAGAPEPFEPAQPDAY; also: glycosylated (sugar moiety); UniProt P01185 126-164, looked up)”, the “Recovery (%)” value in series [2] (plasma (n = 5), storage 1 d/4° C.) amounted to 103.4%; in series [2] (plasma (n = 5), storage 1 d/RT), 99.9%; in series [2] (plasma (n = 5), storage 2 d/4° C.), 101.6%; in series [2] (plasma (n = 5), storage 2 d/RT) it was 104.9%; in series [2] (serum (n = 3), storage 1 d/4° C.) it was 98.0%; in series [2] (serum (n = 3), storage 1 d/RT), 94.1%. Further, the “Recovery (%)” value in series [2] (serum (n = 3), storage 2 d/4° C.) is listed as 99.2%; in series [2] (serum (n = 3), storage 2 d/RT), 103.7%.
